Results taken from patent US20220049021A1.

Target: T1, human FLT3 on AML5 cells (human) (UniProt P36888)
T1 sequence (looked up): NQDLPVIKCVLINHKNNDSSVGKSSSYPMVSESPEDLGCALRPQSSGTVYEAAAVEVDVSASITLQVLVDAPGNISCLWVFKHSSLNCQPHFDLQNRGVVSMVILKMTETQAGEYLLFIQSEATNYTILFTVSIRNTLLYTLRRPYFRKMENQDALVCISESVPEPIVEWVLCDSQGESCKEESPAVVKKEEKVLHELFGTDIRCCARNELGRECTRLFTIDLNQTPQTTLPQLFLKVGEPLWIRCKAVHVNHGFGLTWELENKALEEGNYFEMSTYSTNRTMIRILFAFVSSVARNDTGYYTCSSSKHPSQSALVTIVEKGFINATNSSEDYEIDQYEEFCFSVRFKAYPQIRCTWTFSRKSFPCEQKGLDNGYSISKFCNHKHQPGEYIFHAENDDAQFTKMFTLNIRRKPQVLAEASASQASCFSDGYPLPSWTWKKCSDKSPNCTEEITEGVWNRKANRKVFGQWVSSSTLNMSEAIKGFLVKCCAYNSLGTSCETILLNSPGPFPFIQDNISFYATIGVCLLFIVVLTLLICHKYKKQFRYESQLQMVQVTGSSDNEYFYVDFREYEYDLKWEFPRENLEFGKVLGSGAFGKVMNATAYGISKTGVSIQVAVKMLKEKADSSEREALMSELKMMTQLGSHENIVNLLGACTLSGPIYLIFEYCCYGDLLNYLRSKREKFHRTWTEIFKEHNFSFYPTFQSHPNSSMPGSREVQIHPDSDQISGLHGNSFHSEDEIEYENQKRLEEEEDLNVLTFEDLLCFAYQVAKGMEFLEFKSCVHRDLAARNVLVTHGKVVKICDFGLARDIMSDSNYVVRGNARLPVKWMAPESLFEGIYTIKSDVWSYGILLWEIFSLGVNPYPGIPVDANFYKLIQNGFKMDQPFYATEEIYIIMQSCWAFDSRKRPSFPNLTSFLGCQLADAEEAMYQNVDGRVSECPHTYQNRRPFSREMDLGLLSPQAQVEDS
Assay: cell-based or functional assay

Sequence of human FLT3-ligand (H8Y) human hingeless IgG1 fusion protein (SEQ ID NO:22) (Fc fusion) (chain): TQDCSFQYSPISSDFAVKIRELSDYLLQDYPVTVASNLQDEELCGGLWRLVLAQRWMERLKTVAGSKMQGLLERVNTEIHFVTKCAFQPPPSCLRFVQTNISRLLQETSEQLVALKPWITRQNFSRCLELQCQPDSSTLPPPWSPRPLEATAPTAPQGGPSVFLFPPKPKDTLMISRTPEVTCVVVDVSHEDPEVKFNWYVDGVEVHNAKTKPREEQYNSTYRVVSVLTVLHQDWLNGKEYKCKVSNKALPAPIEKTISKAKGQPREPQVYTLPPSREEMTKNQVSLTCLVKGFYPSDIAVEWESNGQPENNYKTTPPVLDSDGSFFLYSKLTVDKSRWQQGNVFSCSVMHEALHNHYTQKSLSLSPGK
Sequence of human FLT3-ligand human IgG1 fusion protein (SEQ ID NO:21) (Fc fusion) (chain): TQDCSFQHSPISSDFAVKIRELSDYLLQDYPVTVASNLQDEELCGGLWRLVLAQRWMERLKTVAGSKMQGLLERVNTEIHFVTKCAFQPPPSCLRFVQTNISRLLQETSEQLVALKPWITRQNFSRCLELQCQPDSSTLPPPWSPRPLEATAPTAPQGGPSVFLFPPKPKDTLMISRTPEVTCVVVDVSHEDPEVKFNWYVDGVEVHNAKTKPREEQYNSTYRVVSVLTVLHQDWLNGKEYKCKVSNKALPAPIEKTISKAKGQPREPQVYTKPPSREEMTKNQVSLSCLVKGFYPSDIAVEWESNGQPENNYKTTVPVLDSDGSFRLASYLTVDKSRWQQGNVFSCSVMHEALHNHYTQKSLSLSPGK

EC50 (nM), Inducing Proliferation of AML5 Cells [nM] | potency in AML5 proliferation against SEQ ID NO:1 [fold] | Substance
0.014 | 2.5 | human FLT3-ligand (H8Y) human hingeless IgG1 fusion protein (SEQ ID NO:22) (Fc fusion)
0.013 | 2.5 | human FLT3-ligand (H8Y+K84E) human hingeless IgG1 fusion protein (SEQ ID NO:24) (Fc fusion)
0.013 | 2.5 | human FLT3-ligand (K84E) human hingeless IgG1 fusion protein (SEQ ID NO:23) (Fc fusion)
0.035 | – | human FLT3-ligand human IgG1 fusion protein (SEQ ID NO:21) (Fc fusion)
